Assay results from paper doi:10.1101/2021.07.22.453419.
Where two headings read alike, the source gives them in different places. Values belong to the substance of their own block, whether it stands above or below them.

Legend:
[1] = target: Papain (E.C.3.4.22.2, from papaya latex) (papaya) (UniProt P00784)
[2] = target: Papain (E.C.3.4.22.2, from papaya latex) (papaya) (UniProt P00784); conditions: natural protein
[3] = target: Papain (E.C.3.4.22.2, from papaya latex) (papaya) (UniProt P00784); remark: listed apart in the source
[4] = target: Papain (E.C.3.4.22.2, from papaya latex) (papaya) (UniProt P00784); remark: listed apart in the source
[5] = target: Papain (E.C.3.4.22.2, from papaya latex) (papaya) (UniProt P00784); remark: listed apart in the source
[6] = target: Papain (E.C.3.4.22.2, from papaya latex) (papaya) (UniProt P00784); remark: listed apart in the source
[7] = target: Papain (E.C.3.4.22.2, from papaya latex) (papaya) (UniProt P00784); assay: enzyme inhibition kinetics
[8] = target: Papain (E.C.3.4.22.2, from papaya latex) (papaya) (UniProt P00784); remark: listed apart in the source
[9] = target: Papain (E.C.3.4.22.2, from papaya latex) (papaya) (UniProt P00784); remark: listed apart in the source
[10] = target: Papain (E.C.3.4.22.2, from papaya latex) (papaya) (UniProt P00784); remark: listed apart in the source
[11] = target: Papain (E.C.3.4.22.2, from papaya latex) (papaya) (UniProt P00784); remark: listed apart in the source
[12] = target: Papain (E.C.3.4.22.2, from papaya latex) (papaya) (UniProt P00784); remark: listed apart in the source
[13] = target: Papain (E.C.3.4.22.2, from papaya latex) (papaya) (UniProt P00784); remark: listed apart in the source
[14] = target: Papain (E.C.3.4.22.2, from papaya latex) (papaya) (UniProt P00784); conditions: natural protein; remark: listed apart in the source
[15] = target: Papain (E.C.3.4.22.2, from papaya latex) (papaya) (UniProt P00784); conditions: natural protein; remark: listed apart in the source

Chain of Papain (E.C.3.4.22.2, from papaya latex) (papaya) (P00784 134-345): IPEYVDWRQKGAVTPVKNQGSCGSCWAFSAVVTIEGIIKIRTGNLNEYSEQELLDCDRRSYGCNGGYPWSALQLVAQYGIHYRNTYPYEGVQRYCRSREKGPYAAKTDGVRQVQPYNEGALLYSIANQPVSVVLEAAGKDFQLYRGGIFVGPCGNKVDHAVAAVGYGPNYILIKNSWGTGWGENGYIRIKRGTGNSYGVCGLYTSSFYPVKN

Substance: EgCYS
Ki [1]: 6.4 nM

Substance: KsCYS
Ki [4]: 7.5 nM

Substance: LjCYS
Ki [5]: 13.5 nM

Substance: PsCYS
Ki [8]: 4.8 nM

Substance: SlCYS8 SE hybrid P-1 (first inhibitory loop of PpCYS)
Ki (papain), fold smaller than that of SlCYS8 [7]: 7 fold

Substance: TcCYSB
Ki [11]: 5.6 nM

Substance: ThCYS
Ki [12]: 14 nM

Substance: barley cystatin HaCYS3
Ki [14]: 15.4 nM

Substance: soybean GmCYSB (natural protein)
Ki [7]: 38.2 nM

Now from value to substance:

Ki [2]: 4.3 nM
Substance: Glycine soja GsCYS

Ki [3]: 7 nM
Substance: JcCYS

Ki [6]: 7.1 nM
Substance: MsCYS

Ki [7]: 1.2 nM
Substance: Physcomitrella patens C-tailed cystatin domain PpCYS (domain or fragment)

Ki [9]: 5.5 nM
Substance: SiCYS

Ki (papain), fold smaller than that of SlCYS8 [7]: 7 fold
Substance: SlCYS8 SE hybrid P-N1 (N-terminal trunk and first inhibitory loop of PpCYS)

Ki [10]: 13.3 nM
Substance: SlCYS9

Ki [13]: 4.8 nM
Substance: ZmCYSB

Ki [15]: 14.4 nM
Substance: cucumber cystatin CsCYS

Ki [7]: 2.7 nM
Substance: tomato multicystatin domain SlCYS7 (domain or fragment)
